Source: IntAct's records for PubMed 19194460

B1: Decapping nuclease din1 (Schizosaccharomyces pombe (strain ATCC 38366 / 972)), O13836 (parent)
chain: MLREFSFYDVPPAHVPPVSEPLEIACYSLSRDRELLLDDSKLSYYYPPPLFSDLNTGFPNRFHPPKSDPDPISIVKDVLMTKGIQMNSSFLTWRGLITKIMCAPLDPRNHWETYLVMDPTSGIIMMEERTRSETSYANQDRMCYWGYKFEAISTLPEIWDACSRDQIEQRDNQDVVPDEQYCSIVKINIGKSKLILAGEVDCIWDKKPCSAKESDVHSDDGTIEEDASNAENPNLHYVELKTSKKYPLENYGMRKKLLKYWAQSFLLGIGRIIIGFRDDNGILIEMKELFTHQIPKMLRPYFKPNDWTPNRLLVVLEHALEWIKQTVKQHPPSTEFTLSYTGGSKLVLRQII
partner: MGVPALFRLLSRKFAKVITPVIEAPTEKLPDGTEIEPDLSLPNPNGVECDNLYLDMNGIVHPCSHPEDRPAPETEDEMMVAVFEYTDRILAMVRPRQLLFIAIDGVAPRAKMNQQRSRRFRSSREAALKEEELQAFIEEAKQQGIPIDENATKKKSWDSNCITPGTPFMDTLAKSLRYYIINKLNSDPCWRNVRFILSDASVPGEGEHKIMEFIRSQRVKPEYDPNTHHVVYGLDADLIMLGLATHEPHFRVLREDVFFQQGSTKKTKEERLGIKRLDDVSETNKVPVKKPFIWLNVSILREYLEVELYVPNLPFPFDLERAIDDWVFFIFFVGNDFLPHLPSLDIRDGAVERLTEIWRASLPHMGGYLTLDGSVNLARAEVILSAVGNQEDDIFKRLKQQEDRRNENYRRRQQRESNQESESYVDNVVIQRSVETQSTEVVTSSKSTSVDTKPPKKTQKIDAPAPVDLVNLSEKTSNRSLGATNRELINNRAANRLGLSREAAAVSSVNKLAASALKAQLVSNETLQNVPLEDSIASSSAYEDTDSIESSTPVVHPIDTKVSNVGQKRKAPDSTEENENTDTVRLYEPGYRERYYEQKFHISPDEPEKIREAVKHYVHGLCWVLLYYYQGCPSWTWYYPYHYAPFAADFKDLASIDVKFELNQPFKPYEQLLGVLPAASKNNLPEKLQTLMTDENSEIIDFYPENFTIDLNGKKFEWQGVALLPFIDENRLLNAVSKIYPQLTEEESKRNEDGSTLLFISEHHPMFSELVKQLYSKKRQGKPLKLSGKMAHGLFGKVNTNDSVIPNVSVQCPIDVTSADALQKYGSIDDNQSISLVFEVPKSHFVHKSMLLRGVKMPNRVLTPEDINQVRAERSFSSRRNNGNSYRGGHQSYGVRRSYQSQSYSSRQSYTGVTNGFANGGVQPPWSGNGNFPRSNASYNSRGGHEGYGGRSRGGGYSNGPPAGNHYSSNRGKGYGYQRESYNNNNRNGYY

Variants of: B1
Details: with xrn2_schpo dhp1, P40848

Variant	effect of a mutation on the interaction
MLREFSFYDVPPAHVPPVSEPLEIACYSLSRDRELLLDDSKLSYYYPPPLFSDLNTGFPNRFHPPKSDPDPISIVKDVLMTKGIQMNSSFLTWRGLITKIMCAPLDPRNHWETYLVMDPTSGIIMMEERTRSETSYANQDRMCYWGYKFEAISTLPEIWDACSADQIEQRDNQDVVPDEQYCSIVKINIGKSKLILAGEVDCIWDKKPCSAKESDVHSDDGTIEEDASNAENPNLHYVELKTSKKYPLENYGMRKKLLKYWAQSFLLGIGRIIIGFRDDNGILIEMKELFTHQIPKMLRPYFKPNDWTPNRLLVVLEHALEWIKQTVKQHPPSTEFTLSYTGGSKLVLRQII [R164A]	decreasing interaction
MLREFSFYDVPPAHVPPVSEPLEIACYSLSRDRELLLDDSKLSYYYPPPLFSDLNTGFPNRFHPPKSDPDPISIVKDVLMTKGIQMNSSFLTWRGLITKIMCAPLDPRNHWETYLVMDPTSGIIMMEERTRSETSYANQDRMCYWGYKFEAISTLPEIWDACSRDQIEQRDNQDVVPDEQYCSIVKINIGKSKLILAGEVDCIADKKPCSAKESDVHSDDGTIEEDASNAENPNLHYVELKTSKKYPLENYGMRKKLLKYWAQSFLLGIGRIIIGFRDDNGILIEMKELFTHQIPKMLRPYFKPNDWTPNRLLVVLEHALEWIKQTVKQHPPSTEFTLSYTGGSKLVLRQII [W204A]	decreasing interaction
MLREFSFYDVPPAHVPPVSEPLEIACYSLSRDRELLLDDSKLSYYYPPPLFSDLNTGFPNRFHPPKSDPDPISIVKDVLMTKGIQMNSSFLTWRGLITKIMCAPLDPRNHWETYLVMDPTSGIIMMEERTRSETSYANQDRMCYWGYKFEAISTLPEIADACSRDQIEQRDNQDVVPDEQYCSIVKINIGKSKLILAGEVDCIWDKKPCSAKESDVHSDDGTIEEDASNAENPNLHYVELKTSKKYPLENYGMRKKLLKYWAQSFLLGIGRIIIGFRDDNGILIEMKELFTHQIPKMLRPYFKPNDWTPNRLLVVLEHALEWIKQTVKQHPPSTEFTLSYTGGSKLVLRQII [W159A]	decreasing interaction
